# Measured values from patent US20250269047A1 (MABWELL SHANGHAI BIOSCIENCE, published 2025).
# Target: T1, recombinant human B7-H3-his extracellular domain protein (UniProtKB-Q5ZPR3, 1 aa-461 aa) (human, UniProt Q5ZPR3 29-461)
# T1 construct: range 1-461; The printed range 1-461 starts at residue 1 and so includes the signal peptide; also called Human B7-H3 ECD; recombinant human B7-H3-his protein; not shown: C-terminal his tag
# T1 sequence (looked up): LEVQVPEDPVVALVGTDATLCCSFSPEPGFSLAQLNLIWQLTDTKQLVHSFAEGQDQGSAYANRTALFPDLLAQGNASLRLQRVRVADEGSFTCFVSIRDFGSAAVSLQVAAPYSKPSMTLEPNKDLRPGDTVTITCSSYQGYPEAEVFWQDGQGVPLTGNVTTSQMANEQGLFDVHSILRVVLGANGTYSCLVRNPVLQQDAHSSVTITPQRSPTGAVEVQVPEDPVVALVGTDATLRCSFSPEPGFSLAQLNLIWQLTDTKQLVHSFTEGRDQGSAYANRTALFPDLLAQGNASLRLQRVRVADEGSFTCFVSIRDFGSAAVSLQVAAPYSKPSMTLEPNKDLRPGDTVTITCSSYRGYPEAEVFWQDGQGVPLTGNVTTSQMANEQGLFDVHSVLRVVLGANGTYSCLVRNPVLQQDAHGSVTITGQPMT
# Assay: BLI (Octet QKe), antibody on AHC biosensor, B7-H3-his 60 nM in solution
# Description: Affinities of the antibodies were determined by an assay including capturing Fc fragments of the antibodies with anti-human IgG Fc capture (AHC) biosensors using Octet QKe system instrument from Fortebio. For the assay, each of the chimeric antibodies ch9B11, ch10B4, ch17A3 and the control antibody Enoblituzumab was diluted to 4 μg/ml in PBS, and was allowed to flow through the surface of an AHC biosensor (Cat.: 18-0015, PALL) for 120 s. Recombinant human B7-H3 extracellular domain protein (Accession No.: UniProtKB-Q5ZPR3, 1 aa-461 aa, C-his tag) (60 nM) was used as a mobile phase. The association time was 300 s and the dissociation time was 300 s. When the assay was finished, data from which the response values of blank control had been deducted were fitted to a 1:1 Langmuir binding model using software, and then kinetic constants for antigen-antibody binding were calculated.
Kd [nM],koff [s⁻¹],kon [M⁻¹ s⁻¹],Binder
0.12,0.000141,1.17e+06,"ch9B11 (antibody, human IgG1, V domains shown, also called chimeric antibody 9B11) VH: EVQLQQSGPELVRPGVSVKISCKGSGYSFTDYAIHWVKQSHAMSLEWIGIINTYYGNTNYNQKFKGKATMTVDKSSSTAYMELARLTSADSAIYYCARSTTTATFYWYFDVWGAGTTVSVSS VL: DIVLTQSPVTLSVTPGDSVSLSCRASQSINNNLHWYQQKPHESPRLLIKYASQSISGIPSRFSGSGSGTDFTLSFNSVETEDFGMYFCQQSHSWPYTFGGGTKLEIK"
0.435,0.000262,602000,"ch10B4 (antibody, human IgG1, V domains shown, also called chimeric antibody 10B4) VH: EVQLQQSGPELVKPGASVKISCKTSGYTFTEYIMHWVKQSHGKSLEWIGGINPNNGGTTYNQKFKGKATLTVDKSSSTAYMELRSLTSEDSAVYYCARKGKDYFDWYFDVWGAGTTVTVSS VL: QIVLTQSPTIMSASPGEKVTMTCSASSSVSYMHWYQQKSGTSPKRWIYDTSKLASGVPARFSGSGSGTSYSLTISSMEAEDAATYYCQQWSSNPLTFGAGTKLELK"
0.269,0.000259,965000,"ch17A3 (antibody, human IgG1, V domains shown, also called chimeric antibody 17A3) VH: QVQLQQSGPELVRPGVSVKISCKGSGYTFTDYALHWVKQSHAKSPQWIGLINTYSSNTNYNQKFKDKATMTVDKSSSTAYMELARLTSEDSAIYYCARGITAVVGTRYYAMDYWGQGTSVTVSS VL: NIVLTQSPTTLSVTPGDTVSLSCRASQSISNNLHWYQQRSHESPRLIIKYTSQNISGIPSRFSGSGSGTDFTLSINSVETEDFGMYFCQQSYSWPLTFGAGTKLELKR"

# Target: T1, recombinant human B7-H3-his …
# Assay: as above
# Remark: another data set of the same source
# Description: According to the mutation designs, site-directed mutagenesis was performed in the plasmids expressing the humanized light chains and heavy chains respectively using StarMut gene Site-directed Mutagenesis Kit (Cat.: T111-01, GenStar). The mutated plasmids were transformed into E. coli cells for expansion, and plasmids expressing the humanized and mutated light and heavy chains based on the antibodies 9B11, 10B4, and 17A3 were obtained. […] 5-6 days after cell transfection, culture supernatants were purified through ProA affinity chromatography column to obtain different humanized antibodies. Affinities of the antibodies were determined by an assay including capturing Fc fragments of the antibodies with anti-human IgG Fc capture (AHC) biosensors using Octet QKe system instrument from Fortebio. For the assay, each of the humanized antibodies and the chimeric antibodies based on the antibodies 9B11, 10B4, and 17A3 was diluted to 4 μg/ml in PBS, and was allowed to flow through the surface of an AHC biosensor (Cat.: 18-0015, PALL) for 300 s. Recombinant human B7-H3-his protein (Accession No.: UniProtKB-Q5ZPR3, 1 aa-461 aa) was used as a mobile phase, and its concentration was 60 nM. The association time was 100 s and the dissociation time was 300 s. When the assay was finished, data from which the response values of blank control had been deducted were fitted to a 1:1 Langmuir binding model using software, and then kinetic constants for antigen-antibody binding were calculated. The light and heavy chain combinations and the affinity constant KD values of the humanized and the mutant antibodies based on the antibodies 9B11, 10B4, and 17A3 are shown in Tables 6-8 respectively.
row,Kd [nM],Binder
1,0.0998,"ch9B11 (antibody, human IgG1, V domains shown, also called chimeric antibody 9B11) VH: EVQLQQSGPELVRPGVSVKISCKGSGYSFTDYAIHWVKQSHAMSLEWIGIINTYYGNTNYNQKFKGKATMTVDKSSSTAYMELARLTSADSAIYYCARSTTTATFYWYFDVWGAGTTVSVSS VL: DIVLTQSPVTLSVTPGDSVSLSCRASQSINNNLHWYQQKPHESPRLLIKYASQSISGIPSRFSGSGSGTDFTLSFNSVETEDFGMYFCQQSHSWPYTFGGGTKLEIK"
2,0.107,"hz9B11-9 (antibody, human IgG1, kappa, hz9B11_VH1 + hz9B11_VL5; human IgG1, kappa) heavy: not shown light: EIVLTQSPGTLSLSPGERATLSCRASQSINNNLHWYQQKPGQAPRLLIKYASQSISGIPDRFSGSGSGTDFTLTISRLEPEDFAVYFCQQSHSWPYTFGQGTKLEIKRTVAAPSVFIFPPSDEQLKSGTASVVCLLNNFYPREAKVQWKVDNALQSGNSQESVTEQDSKDSTYSLSSTLTLSKADYEKHKVYACEVTHQGLSSPVTKSFNRGEC"
3,0.139,"hz9B11-10 (antibody, human IgG1, kappa, hz9B11_VH2 + hz9B11_VL5; human IgG1, kappa) heavy: not shown light: EIVLTQSPGTLSLSPGERATLSCRASQSINNNLHWYQQKPGQAPRLLIKYASQSISGIPDRFSGSGSGTDFTLTISRLEPEDFAVYFCQQSHSWPYTFGQGTKLEIKRTVAAPSVFIFPPSDEQLKSGTASVVCLLNNFYPREAKVQWKVDNALQSGNSQESVTEQDSKDSTYSLSSTLTLSKADYEKHKVYACEVTHQGLSSPVTKSFNRGEC"
4,0.355,"ch10B4 (antibody, human IgG1, V domains shown, also called chimeric antibody 10B4) VH: EVQLQQSGPELVKPGASVKISCKTSGYTFTEYIMHWVKQSHGKSLEWIGGINPNNGGTTYNQKFKGKATLTVDKSSSTAYMELRSLTSEDSAVYYCARKGKDYFDWYFDVWGAGTTVTVSS VL: QIVLTQSPTIMSASPGEKVTMTCSASSSVSYMHWYQQKSGTSPKRWIYDTSKLASGVPARFSGSGSGTSYSLTISSMEAEDAATYYCQQWSSNPLTFGAGTKLELK"
5,0.118,"hz9B11-3 (antibody, human IgG1, kappa, hz9B11_VH1 + hz9B11_VL2; human IgG1, kappa) heavy: not shown light: EIVLTQSPDFQSVTPKEKVTITCRASQSINNNLHWYQQKPDQSPKLLIKYASQSISGVPSRFSGSGSGTDFTLTINSLEAEDAATYYCQQSHSWPYTFGQGTKLEIKRTVAAPSVFIFPPSDEQLKSGTASVVCLLNNFYPREAKVQWKVDNALQSGNSQESVTEQDSKDSTYSLSSTLTLSKADYEKHKVYACEVTHQGLSSPVTKSFNRGEC"
6,0.141,"hz9B11-4 (antibody, human IgG1, kappa, hz9B11_VH2 + hz9B11_VL2; human IgG1, kappa) heavy: not shown light: EIVLTQSPDFQSVTPKEKVTITCRASQSINNNLHWYQQKPDQSPKLLIKYASQSISGVPSRFSGSGSGTDFTLTINSLEAEDAATYYCQQSHSWPYTFGQGTKLEIKRTVAAPSVFIFPPSDEQLKSGTASVVCLLNNFYPREAKVQWKVDNALQSGNSQESVTEQDSKDSTYSLSSTLTLSKADYEKHKVYACEVTHQGLSSPVTKSFNRGEC"
7,0.367,"ch17A3 (antibody, human IgG1, V domains shown, also called chimeric antibody 17A3) VH: QVQLQQSGPELVRPGVSVKISCKGSGYTFTDYALHWVKQSHAKSPQWIGLINTYSSNTNYNQKFKDKATMTVDKSSSTAYMELARLTSEDSAIYYCARGITAVVGTRYYAMDYWGQGTSVTVSS VL: NIVLTQSPTTLSVTPGDTVSLSCRASQSISNNLHWYQQRSHESPRLIIKYTSQNISGIPSRFSGSGSGTDFTLSINSVETEDFGMYFCQQSYSWPLTFGAGTKLELKR"
8,0.289,"hz17A3-20 (antibody, human IgG1, kappa, V domains shown, hz17A3_VH3 + hz17A3_VL8; human IgG1, kappa) VH: EVQLVQSGAEVKKPGASVKVSCKASGYTFTDYALHWVRQAPGQGLEWMGLINTYSSNTNYNQKFKDRVTMTRDTSISTAYMELSRLRSEDTAVYYCARGITAVVGTRYYAMDYWGQGTLVTVSS VL: EIVLTQSPDFQSVTPKEKVTITCRASQSISNNLHWYQQKPDQSPKLLIKYTSQNISGVPSRFSGSGSGTDFTLTINSLEAEDAATYYCQQSYSWPLTFGGGTKVEIKR"
9,0.598,"hz17A3-3 (antibody, human IgG1, kappa, V domains shown, hz17A3_VH1 + hz17A3_VL2; human IgG1, kappa) VH: QVQLVQSGAEVKKPGASVKVSCKASGYTFTDYALHWVRQAPGQGLEWMGLINTYSSNTNYNQKFKDRVTMTRDTSISTAYMELSRLRSDDTAVYYCARGITAVVGTRYYAMDYWGQGTLVTVSS VL: EIVLTQSPDFQSVTPKEKVTITCRASQSISNNLHWYQQKPDQSPKLLIYYTSQNISGVPSRFSGSGSGTDFTLTINSLEAEDAATYYCQQSYSWPLTFGGGTKVEIKR"
10,0.899,"hz17A3-4 (antibody, human IgG1, kappa, V domains shown, hz17A3_VH2 + hz17A3_VL2; human IgG1, kappa) VH: QVQLVQSGAEVKKPGASVKVSCKASGYTFTDYALHWVRQAPGQGLEWIGLINTYSSNTNYNQKFKDRVTMTRDTSISTAYMELSRLRSDDTAVYYCARGITAVVGTRYYAMDYWGQGTLVTVSS VL: EIVLTQSPDFQSVTPKEKVTITCRASQSISNNLHWYQQKPDQSPKLLIYYTSQNISGVPSRFSGSGSGTDFTLTINSLEAEDAATYYCQQSYSWPLTFGGGTKVEIKR"
11,0.433,"hz17A3-21 (antibody, human IgG1, kappa, V domains shown, hz17A3_VH4 + hz17A3_VL8; human IgG1, kappa) VH: EVQLVQSGAEVKKPGASVKVSCKASGYTFTDYALHWVRQAPGQGLEWMGLISTYSSNTNYNQKFKDRVTMTRDTSISTAYMELSRLRSEDTAVYYCARGITAVVGTRYYAMDYWGQGTLVTVSS VL: EIVLTQSPDFQSVTPKEKVTITCRASQSISNNLHWYQQKPDQSPKLLIKYTSQNISGVPSRFSGSGSGTDFTLTINSLEAEDAATYYCQQSYSWPLTFGGGTKVEIKR"
12,0.479,"hz17A3-22 (antibody, human IgG1, kappa, V domains shown, hz17A3_VH5 + hz17A3_VL8; human IgG1, kappa) VH: EVQLVQSGAEVKKPGASVKVSCKASGYTFTDYALHWVRQAPGQGLEWMGLINTYSSSTNYNQKFKDRVTMTRDTSISTAYMELSRLRSEDTAVYYCARGITAVVGTRYYAMDYWGQGTLVTVSS VL: EIVLTQSPDFQSVTPKEKVTITCRASQSISNNLHWYQQKPDQSPKLLIKYTSQNISGVPSRFSGSGSGTDFTLTINSLEAEDAATYYCQQSYSWPLTFGGGTKVEIKR"
13,2.58,"hz17A3-23 (antibody, human IgG1, kappa, V domains shown, hz17A3_VH3 + hz17A3_VL9; human IgG1, kappa) VH: EVQLVQSGAEVKKPGASVKVSCKASGYTFTDYALHWVRQAPGQGLEWMGLINTYSSNTNYNQKFKDRVTMTRDTSISTAYMELSRLRSEDTAVYYCARGITAVVGTRYYAMDYWGQGTLVTVSS VL: EIVLTQSPDFQSVTPKEKVTITCRASQSISNNLHWYQQKPDQSPKLLIYYTSQNISGVPSRFSGSGSGTDFTLTINSLEAEDAATYFCQQSYSWPLTFGGGTKVEIKR"
14,1.91,"hz17A3-24 (antibody, human IgG1, kappa, V domains shown, hz17A3_VH4 + hz17A3_VL9; human IgG1, kappa) VH: EVQLVQSGAEVKKPGASVKVSCKASGYTFTDYALHWVRQAPGQGLEWMGLISTYSSNTNYNQKFKDRVTMTRDTSISTAYMELSRLRSEDTAVYYCARGITAVVGTRYYAMDYWGQGTLVTVSS VL: EIVLTQSPDFQSVTPKEKVTITCRASQSISNNLHWYQQKPDQSPKLLIYYTSQNISGVPSRFSGSGSGTDFTLTINSLEAEDAATYFCQQSYSWPLTFGGGTKVEIKR"
15,4.88,"hz17A3-25 (antibody, human IgG1, kappa, V domains shown, hz17A3_VH5 + hz17A3_VL9; human IgG1, kappa) VH: EVQLVQSGAEVKKPGASVKVSCKASGYTFTDYALHWVRQAPGQGLEWMGLINTYSSSTNYNQKFKDRVTMTRDTSISTAYMELSRLRSEDTAVYYCARGITAVVGTRYYAMDYWGQGTLVTVSS VL: EIVLTQSPDFQSVTPKEKVTITCRASQSISNNLHWYQQKPDQSPKLLIYYTSQNISGVPSRFSGSGSGTDFTLTINSLEAEDAATYFCQQSYSWPLTFGGGTKVEIKR"
